Each block holds one molecule with its values, some of them ahead of it.
Tests used:
[1] = biological target: actin filaments of D. melanogaster S2 cells (lamellipodial actin ring, patches, filopodia) (D. melanogaster); assay: TIRF imaging of S2 cells before and after blue light
[2] = biological target: actin filaments of D. melanogaster S2 cells (lamellipodial actin ring, patches, filopodia) (D. melanogaster); assay: TIRF imaging of a fixed S2 cell expressing mCherry-Lifeact stained with Alexa Fluor 488 phalloidin; panel a, lower cell
[3] = biological target: actin filaments of D. melanogaster S2 cells (lamellipodial actin ring, patches, filopodia) (D. melanogaster); assay: TIRF imaging of a fixed S2 cell expressing mCherry-Lifeact stained with Alexa Fluor 488 phalloidin; panel a, upper cell
[4] = biological target: F-actin (G-actin polymerized, filaments stabilized with phalloidin); assay: cosedimentation with 0.5 µM phalloidin-stabilized F-actin, SDS-PAGE of the pellet, hyperbolic fit
[5] = biological target: actin filaments of D. melanogaster S2 cells (lamellipodial actin ring, patches, filopodia) (D. melanogaster); assay: cell-based or functional assay
[6] = biological target: actin filaments of D. melanogaster S2 cells (lamellipodial actin ring, patches, filopodia) (D. melanogaster); assay: TIRF images of an S2 cell before and after blue-light excitation, printed in panel b
[7] = biological target: actin filaments of D. melanogaster S2 cells (lamellipodial actin ring, patches, filopodia) (D. melanogaster); assay: TIRF image of an S2 cell before blue-light excitation, panel a; outer and inner rings hand traced
[8] = biological target: actin filaments of D. melanogaster S2 cells (lamellipodial actin ring, patches, filopodia) (D. melanogaster); assay: TIRF image of the same S2 cell after blue-light excitation, panel b; outer and inner rings hand traced
[9] = biological target: actin filaments of D. melanogaster S2 cells (lamellipodial actin ring, patches, filopodia) (D. melanogaster); assay: TIRF imaging of a live S2 cell; actin labeling ratio over time, panel B, recovery after the 2nd blue-light excitation
[10] = biological target: actin filaments of D. melanogaster S2 cells (lamellipodial actin ring, patches, filopodia) (D. melanogaster); assay: TIRF imaging of a live S2 cell; actin labeling ratio over time, panel B, recovery after the 3rd blue-light excitation
[11] = biological target: actin filaments of D. melanogaster S2 cells (lamellipodial actin ring, patches, filopodia) (D. melanogaster); assay: TIRF imaging of a live S2 cell; actin labeling ratio over time, panel B, recovery after the 4th blue-light excitation
[12] = biological target: actin filaments of D. melanogaster S2 cells (lamellipodial actin ring, patches, filopodia) (D. melanogaster); assay: TIRF imaging of a repeatedly excited S2 cell; actin labeling ratio over time, panel f, recovery after the 2nd excitation
[13] = biological target: actin filaments of D. melanogaster S2 cells (lamellipodial actin ring, patches, filopodia) (D. melanogaster); assay: TIRF imaging of a repeatedly excited S2 cell; actin labeling ratio over time, panel f, recovery after the 3rd excitation
[14] = biological target: actin filaments of D. melanogaster S2 cells (lamellipodial actin ring, patches, filopodia) (D. melanogaster); assay: TIRF imaging of a repeatedly excited S2 cell; actin labeling ratio over time, panel f, recovery after the 4th excitation
[15] = biological target: actin filaments of D. melanogaster S2 cells (lamellipodial actin ring, patches, filopodia) (D. melanogaster); assay: TIRF imaging of a repeatedly excited S2 cell; actin labeling ratio over time, panel f, recovery after the 1st excitation (black exponential fit)
[16] = biological target: actin filaments of D. melanogaster S2 cells (lamellipodial actin ring, patches, filopodia) (D. melanogaster); assay: TIRF imaging of a live S2 cell; actin labeling ratio over time, panel B, recovery after the 1st blue-light excitation (black exponential fit drawn on this one)
[17] = biological target: actin filaments of D. melanogaster S2 cells (lamellipodial actin ring, patches, filopodia) (D. melanogaster); assay: TIRF imaging of an S2 cell expressing mCherry-LILAC, fixed under blue light and stained with Alexa Fluor 488 phalloidin; panel b, lower cell
[18] = biological target: actin filaments of D. melanogaster S2 cells (lamellipodial actin ring, patches, filopodia) (D. melanogaster); assay: TIRF imaging of an S2 cell expressing mCherry-LILAC, fixed under blue light and stained with Alexa Fluor 488 phalloidin; panel b, upper cell

switching ratio (fold change of the actin labeling ratio, post/pre-excitation) [1]: 1
r (Pearson's correlation coefficient with the phalloidin image) [2]: 0.89
r (Pearson's correlation coefficient with the phalloidin image) [3]: 0.83
Molecule: mCherry-Lifeact expressed in Drosophila S2 cells (pMT-mCherry-Lifeact vector) (from UniProt Q08641 1-17)

Kd [4]: 3.9 µM
Molecule: mCherry-Lifeact, expressed in E. coli and purified (6×His-mCherry-TEV-Lifeact from the pET21-mCherry-Lifeact vector) (from UniProt Q08641 1-17)

dark state recovery time constant, from actin labeling ratio traces [5]: 63 s
switching ratio (fold change of the actin labeling ratio, post/pre-excitation) [1]: 1.6
ASR (actin switching ratio, ALR post / ALR pre) [6]: 2.02
ALR (actin labeling ratio, intensity outer / intensity inner) [7]: 0.39
ALR (actin labeling ratio, intensity outer / intensity inner) [8]: 0.79
τ (time constant of the decay of the actin labeling ratio after excitation) [9]: 73 s
τ (time constant of the decay of the actin labeling ratio after excitation) [10]: 61 s
τ (time constant of the decay of the actin labeling ratio after excitation) [11]: 59 s
τ (time constant of the decay of the actin labeling ratio after excitation) [12]: 73 s
τ (time constant of the decay of the actin labeling ratio after excitation) [13]: 61 s
τ (time constant of the decay of the actin labeling ratio after excitation) [14]: 59 s
τ (time constant of the decay of the actin labeling ratio after excitation) [15]: 71 s
τ (time constant of the decay of the actin labeling ratio after excitation) [16]: 71 s
r (Pearson's correlation coefficient with the phalloidin image) [17]: 0.62
r (Pearson's correlation coefficient with the phalloidin image) [18]: 0.6
B1: mCherry-LILAC expressed in Drosophila S2 cells (pMT vector) (designed binder, not shown: large carriers)
chain: GGSGGSGGSGEFLATTLERIEKNFVITDPRLPDNPIIFASDSFLQLTEYSREEILGRNCRFLQGPETDRATVRKIRDAIDNQTEVTVQLINYTKSGKKFWNLFHLQPMRDQKGDVQYFIGVQLDGTEHVRDAAEREAVMLAKKTAEEIDEAAMGVADLIKKFESISKEE

switching ratio (fold change of the actin labeling ratio, post/pre-excitation) [1]: 1
B2: mCherry-LILAC I539E expressed in Drosophila S2 cells (pMT vector) (designed binder, not shown: large carriers)
chain: GGSGGSGGSGEFLATTLERIEKNFVITDPRLPDNPIIFASDSFLQLTEYSREEILGRNCRFLQGPETDRATVRKIRDAIDNQTEVTVQLINYTKSGKKFWNLFHLQPMRDQKGDVQYFIGVQLDGTEHVRDAAEREAVMLAKKTAEEEDEAAMGVADLIKKFESISKEE

dark state recovery time constant, from actin labeling ratio traces [5]: 50 s
B3: mCherry-LILAC T406A/T407A expressed in Drosophila S2 cells (pMT vector) (designed binder, not shown: large carriers)
chain: GGSGGSGGSGEFLAAALERIEKNFVITDPRLPDNPIIFASDSFLQLTEYSREEILGRNCRFLQGPETDRATVRKIRDAIDNQTEVTVQLINYTKSGKKFWNLFHLQPMRDQKGDVQYFIGVQLDGTEHVRDAAEREAVMLAKKTAEEIDEAAMGVADLIKKFESISKEE

Kd [4]: 3.4 µM
B4: mCherry-LILAC I539E, expressed in E. coli and purified (6×His-mCherry-TEV-LILAC with I539E, pET21) (designed binder, not shown: large carriers; small tags and cut ends)
chain: HHHHHHGEFLATTLERIEKNFVITDPRLPDNPIIFASDSFLQLTEYSREEILGRNCRFLQGPETDRATVRKIRDAIDNQTEVTVQLINYTKSGKKFWNLFHLQPMRDQKGDVQYFIGVQLDGTEHVRDAAEREAVMLAKKTAEEEDEAAMGVADLIKKFESISKEE

Source: US20240410901A1
